Publication PMC8482623

Substrate: Nc1ncnc2c1ncn2[C@@H]1O[C@H](COP(=O)(O)OP(=O)(O)OP(=O)(O)O)[C@@H](O)[C@H]1O
Experiment: purified protein
Settings: 50 mM Tris-HCl pH 8.0, 20 mM MgCl2, 1 mM EDTA, 37 °C

B1: mBcs1 (full-length mouse Bcs1; mBcs1-His) (Mus musculus) (protein)
chain: MPFSDFVLALKDNPYFGAGFGLVGVGTALAMARKGAQLGLVAFRRHYMITLEVPARDRSYAWLLSWLTRHSTRTQHLSVETSYLQHESGRISTKFEFIPSPGNHFIWYQGKWIRVERNRDMQMVDLQTGTPWESVTFTALGTDRKVFFNILEEARALALQQEEGKTVMYTAVGSEWRTFGYPRRRRPLDSVVLQQGLADRIVKDIREFIDNPKWYIDRGIPYRRGYLLYGPPGCGKSSFITALAGELEHSICLLSLTDSSLSDDRLNHLLSVAPQQSLVLLEDVDAAFLSRDLAVENPIKYQGLGRLTFSGLLNALDGVASTEARIVFMTTNYIDRLDPALIRPGRVDLKEYVGYCSHWQLTQMFQRFYPGQAPSLAENFAEHVLKATSEISPAQVQGYFMLYKNDPMGAVHNIESLR
Km: 40 µM
